In patent US20260151494A1 (ARO BIOTHERAPEUTICS, published 2026):
Residue numbers refer to the chain shown, from its start.

B1: CD71-binding FN3 domain SEQ ID NO: 310 (designed binder)
chain: MSLPAPKNLVVSRVTEDSARLSWTAPDAAFDSFEIDYGEYSQAGEAIGLLVPGSERSYDLTGLKPGTEYAVWIGGVKGGFFSTPLEADFTT
B2: CD71-binding FN3 domain SEQ ID NO: 300 (designed binder)
chain: MSLPAPKNLVVSRVTEDSARLSWTAPDAAFDSFEIGYFEATPNGEAIVLTVPGSERSYDLTGLKPGTEYKVFIGGVKGGRWSKPLSAIFTT
B3: CD71-binding FN3 domain SEQ ID NO: 330 (designed binder)
chain: B2 chain with A40N, T41L, P42Y, N43L, K70W, F72Q, R80N, K83A, F89V
B4: CD71-binding FN3 domain SEQ ID NO: 301 (designed binder)
chain: B2 chain with A25T, A40N, T41L, P42Y, N43L, K70W, F72Q, R80N, K83A
B5: CD71-binding FN3 domain SEQ ID NO: 304 (designed binder)
chain: B2 chain with A40N, T41L, P42Y, N43L, K70V, R80V, K83V
B6: CD71-binding FN3 domain SEQ ID NO: 326 (designed binder)
chain: B2 chain with F38W, A40N, T41A, P42Y, N43K, K70W, F72Q, R80V, K83T
B7: CD71-binding FN3 domain SEQ ID NO: 308 (designed binder)
chain: B2 chain with L21M, A25T, A40N, T41L, P42Y, N43L, K70W, F72Q, R80N, K83A
B8: CD71-binding FN3 domain SEQ ID NO: 315 (designed binder)
chain: B2 chain with A40N, T41L, P42Y, N43L, K70W, F72Q, R80N, K83A, F89S
B9: CD71-binding FN3 domain SEQ ID NO: 316 (designed binder)
chain: B2 chain with V11I, A40N, T41L, P42Y, N43L, K70W, F72Q, R80N, K83A
B10: CD71-binding FN3 domain SEQ ID NO: 324 (designed binder)
chain: B2 chain with V14I, A40N, T41L, P42Y, N43L, K70W, F72Q, R80N, K83A, F89S
B11: CD71-binding FN3 domain SEQ ID NO: 325 (designed binder)
chain: B2 chain with A40N, T41L, P42Y, N43L, K70W, F72Q, R80N, K83A, A87E
B12: CD71-binding FN3 domain SEQ ID NO: 306 (designed binder)
chain: MSLPAPKNLVVSRVTEDSARLSWTAPDAAFDSFEIGHFENLYLGEAIVLTVPGSERSYDLTGLKPGIEYWVQIGGVKGGVWSVSLSAIFTT
B13: CD71-binding FN3 domain SEQ ID NO: 320 (designed binder)
chain: B12 chain with A5V, H37Y, F38W, L41A, L43K, I67T, V80N, V83A, S84P
B14: CD71-binding FN3 domain SEQ ID NO: 313 (designed binder)
chain: B12 chain with G36A, H37Y, L41D, Y42W, L43A, V51I, I67T, V80N, V83A, S84P
B15: CD71-binding FN3 domain SEQ ID NO: 307 (designed binder)
chain: B12 chain with D31N, H37Y, I67T, V80T, W81F, V83A, S84P
B16: CD71-binding FN3 domain SEQ ID NO: 311 (designed binder)
chain: B2 chain with F38W, A40N, T41A, P42Y, N43K, K70V, R80S, K83N
B17: CD71-binding FN3 domain SEQ ID NO: 309 (designed binder)
chain: B12 chain with K7E, H37Y, I67T, V80N, V83A, S84P
B18: CD71-binding FN3 domain SEQ ID NO: 328 (designed binder)
chain: B12 chain with H37Y, E39G, I67T, V80N, V83A, S84P
B19: CD71-binding FN3 domain SEQ ID NO: 323 (designed binder)
chain: B12 chain with H37Y, I67T, V80N, V83G, S84P
B20: CD71-binding FN3 domain SEQ ID NO: 329 (designed binder)
chain: B2 chain with E34D, P42Y, N43Y, K70R, F72W, R80Y, W81Y, K83N
B21: CD71-binding FN3 domain SEQ ID NO: 305 (designed binder)
chain: B2 chain with G36A, A40Q, P42Y, N43T, K70W, F72Q, R80N, K83A
B22: CD71-binding FN3 domain SEQ ID NO: 312 (designed binder)
chain: B12 chain with H37Y, V51I, I67T, V80N, V83A, S84P
B23: CD71-binding FN3 domain SEQ ID NO: 319 (designed binder)
chain: B12 chain with D27G, H37Y, I67T, S84P
B24: CD71-binding FN3 domain SEQ ID NO: 322 (designed binder)
chain: B2 chain with A40I, P42R, N43Y, V48I, T50F, K70W, F72Q, R80N, K83A
B25: CD71-binding FN3 domain SEQ ID NO: 327 (designed binder)
chain: B12 chain with H37Y, F38W, L41A, L43K, I67T, V80N, V83A, S84P
B26: CD71-binding FN3 domain SEQ ID NO: 303 (designed binder)
chain: MSLPAPKNLVVSRVTEDSARLSWTAPDAAFDSFWIEYWEGWKSGEAIVLTVPGSERSYDLTGLKPGTEYRVHIWGVKGGIVSWPLSAIFTT
B27: CD71-binding FN3 domain SEQ ID NO: 290 (designed binder)
chain: MSLPAPKNLVVSRVTEDSARLSWTAPDAAFDSFFIGYLEPQPPGEAIHLYVPGSERSYDLTGLKPGTEYNVTIQGVKGGFPSEPLVATFTT
B28: CD71-binding FN3 domain SEQ ID NO: 243 (designed binder)
chain: B27 chain with F80E, P81W, E83A, V86S, T88I
B29: CD71-binding FN3 domain SEQ ID NO: 264 (designed binder)
chain: B27 chain with H48A, A87V, T88H
B30: CD71-binding FN3 domain SEQ ID NO: 266 (designed binder)
chain: B27 chain with H48Y, Y50L, E83L
B31: CD71-binding FN3 domain SEQ ID NO: 265 (designed binder)
chain: B27 chain with H48S, E83D, T88H
B32: CD71-binding FN3 domain SEQ ID NO: 258 (designed binder)
chain: B27 chain with H48V, Y50G, E83D, T88S
B33: CD71-binding FN3 domain SEQ ID NO: 279 (designed binder)
chain: B27 chain with F80N, P81W, E83A, V86S, T88I
B34: CD71-binding FN3 domain SEQ ID NO: 262 (designed binder)
chain: B27 chain with A46V, Y50F, E83D, T88S
B35: CD71-binding FN3 domain SEQ ID NO: 234 (designed binder)
chain: B27 chain with H48A, T88H
B36: CD71-binding FN3 domain SEQ ID NO: 270 (designed binder)
chain: B27 chain with V86I, T88N, F89S
B37: CD71-binding FN3 domain SEQ ID NO: 314 (designed binder)
chain: MGSLPAPKNLVVSRVTEDSARLSWTAPDAAFDSFEIGYFENLYLGEAIVLTVPGSERSYDLTGLKPGTEYWVQIGGVKGGNWSAPLSAIFTT

Target: T1, human CD71 extracellular domain (CD71-ECD) (human, UniProt P02786 89-760)
T1 construct: also called hCD71; human CD71-ECD
T1 sequence (P02786 89-760): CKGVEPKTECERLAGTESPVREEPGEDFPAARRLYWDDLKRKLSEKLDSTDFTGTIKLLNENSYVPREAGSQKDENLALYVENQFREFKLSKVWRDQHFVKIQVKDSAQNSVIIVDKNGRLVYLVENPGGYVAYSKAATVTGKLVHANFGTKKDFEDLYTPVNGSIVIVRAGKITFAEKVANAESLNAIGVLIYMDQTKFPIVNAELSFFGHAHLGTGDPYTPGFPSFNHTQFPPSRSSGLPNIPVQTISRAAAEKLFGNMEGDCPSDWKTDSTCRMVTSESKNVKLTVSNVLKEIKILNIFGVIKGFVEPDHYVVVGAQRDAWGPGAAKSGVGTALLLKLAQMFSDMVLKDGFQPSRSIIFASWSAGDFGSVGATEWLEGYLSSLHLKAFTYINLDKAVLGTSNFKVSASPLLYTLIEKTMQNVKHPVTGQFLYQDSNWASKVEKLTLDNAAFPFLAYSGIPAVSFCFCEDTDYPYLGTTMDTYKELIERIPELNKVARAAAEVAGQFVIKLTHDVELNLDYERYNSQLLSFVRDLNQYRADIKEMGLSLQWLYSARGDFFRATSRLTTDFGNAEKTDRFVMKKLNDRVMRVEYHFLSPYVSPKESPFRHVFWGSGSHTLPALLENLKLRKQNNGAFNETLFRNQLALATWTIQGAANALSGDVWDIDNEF
Assay: primary ELISA; further: test concentration or dose not given here

Row | RLU | Binder
1 | 2.22e+06 RLU | B1
2 | 3.88e+06 RLU | B2
3 | 2.54e+06 RLU | B3
4 | 3.19e+06 RLU | B4
5 | 3.39e+06 RLU | B5
6 | 1.5e+06 RLU | B6
7 | 3.55e+06 RLU | B7
8 | 2.49e+06 RLU | B8
9 | 3.03e+06 RLU | B9
10 | 3.13e+06 RLU | B10
11 | 2.43e+06 RLU | B11
12 | 1.17e+06 RLU | B12
13 | 2.36e+06 RLU | B13
14 | 2.97e+06 RLU | B14
15 | 3.75e+06 RLU | B15
16 | 2.38e+06 RLU | B16
17 | 3.57e+06 RLU | B17
18 | 2.18e+06 RLU | B18
19 | 2.75e+06 RLU | B19

Row | RLU | Binder
20 | 3.28e+06 RLU | B20
21 | 3.62e+06 RLU | B21
22 | 3.1e+06 RLU | B22
23 | 3.35e+06 RLU | B23
24 | 3.38e+06 RLU | B24
25 | 2.66e+06 RLU | B25
26 | 1.86e+06 RLU | B26
27 | 5.98e+06 RLU | B27
28 | 2.78e+06 RLU | B28
29 | 5.77e+06 RLU | B29
30 | 5.41e+06 RLU | B30
31 | 5.66e+06 RLU | B31
32 | 4.77e+06 RLU | B32
33 | 3.66e+06 RLU | B33
34 | 6.78e+06 RLU | B34
35 | 6.42e+06 RLU | B35
36 | 5.5e+06 RLU | B36
37 | 3.15e+06 RLU | B37

Target: T1, human CD71 extracellular domain …
Assay: primary ELISA, RLU ratio to HSA

Row | hCD71:HSA | Binder
38 | 77 | B1
39 | 284 | B2
40 | 54 | B3
41 | 152 | B4
42 | 274 | B5
43 | 79 | B6
44 | 127 | B7
45 | 41 | B8
46 | 301 | B9
47 | 294 | B10
48 | 114 | B11
49 | 79 | B12
50 | 172 | B13
51 | 480 | B14
52 | 50 | B15
53 | 133 | B16
54 | 287 | B17
55 | 25 | B18
56 | 62 | B19

Row | hCD71:HSA | Binder
57 | 90 | B20
58 | 315 | B21
59 | 324 | B22
60 | 137 | B23
61 | 171 | B24
62 | 143 | B25
63 | 212 | B26
64 | 138 | B27
65 | 355 | B28
66 | 508 | B29
67 | 150 | B30
68 | 409 | B31
69 | 212 | B32
70 | 449 | B33
71 | 529 | B34
72 | 683 | B35
73 | 65 | B36
74 | 256 | B37
